The record followed here is patent publication US20240299584A1, “NON-CODING RNA PROTECTING AGAINST HEART FAILURE” (MEDIZINISCHE HOCHSCHULE HANNOVER, priority 2019, published 2024).

Series [1] concerns HL-1 cells. In words: WST-1 assay (cell viability). It counts as cell-based, mouse. The following applies: HL-1 cells treated with doxorubicin 0.25 μM 48 h. The protocol: HL-1 cells were cultured in Claycomb medium together with 10% FBS, norepinephrine, L-Glutamine and pencillin/streptomycin as manufacturer's protocol. 3T3 and RAW264.7 cells were cultured in DMEM with 10% FBS and pencillin/streptomycin. Neonatal rat cardiomyocytes (NRCM) were isolated from one to three-day old rat babies by using the Neonatal Heart Dissociation Kit (Miltenyi). Human iPSC derived cardiomyocytes (hiPSC-cm) were differentiated at the lab of IMTTS. All the cells were treated with 0.25 μM Doxorubicin (Sigma-Aldrich) for 48 hours. circ-Insr siRNA (Eurofins), in vitro circular RNA and overexpression plasmid were transfected with Lipofectamine 2000 (Life Technologies) in OptiMEM medium. NRCM and hipsc-CM were transduced by AAV6 (MOI: 1*10^4) for 72 hours.
WST-1 assay was performed using Cell Proliferation Reagent WST-1 (Roche) as per the manufacturer instruction. Briefly, HL-1 cells were seeded in 96 well plate and next day treated with 0.25 μM Doxorubicin in normal medium with 10% FBS for forty-eight hours. Next, 10 μL WST1 reagent was added and incubated for 1 hour followed by the absorbance measurement (450 nm) at HT Synergy (Biotek) plate reader.

In a further series the test system is cardiomyocytes. In words: Cardiomyocyte size on wheat germ agglutinin stained heart sections. It counts as in vivo, mouse. Particulars: WGA stained heart sections, doxorubicin model; circINSR given as AAV9. As for the experimental part:
In addition to apoptosis, doxorubicin is known to cause cardiomyocyte atrophy^12 (G). Thus, histopathology analyses were performed on transversal heart section.
Cryosections of heart were stained with Alexa Fluor 488 labelled wheat germ agglutinin (Invitrogen) and dapi. Images were taken with Nikon Eclipse Ti microscope and images were analyzed with NIS Elements. For each heart 5 to 10 images were randomly taken from different regions of the section and minimum two hundred cells were measured and average value was taken for each heart.

Series [2] relates to HL-1 cells. Kind of series: Analysis of mitochondrial fission (MitoTracker). It counts as cell-based, mouse. Particulars: doxorubicin 0.25 μM 48 h, circ-Insr by overexpression plasmid vs negative control. As for the experimental part: Based on the results of the foregoing examples, it was reasoned that circ-Insr could interact with SSBP1. To further confirm the interaction between circ-Insr and SSBP1, siRNA mediated circ-Insr knock-down was applied in HL-1 cells. Next, RNA pulldown was performed with circ-Insr and scramble biotinylated probes. RT-qPCR confirmed that decrease of circ-Insr appeared both in input and circ-Insr pulldown group (FIG. 23A). […] Therefore, we assumed that circ-Insr is a cofactor of SSBP1 resulting in the regulation of mitochondrial function in cardiomyocytes by stabilizing mtDNA. […] Furthermore, mito-damage assay was applied to measure the changes in mitochondrial membrane potential (MMP). […]
Mitochondrial fission was analysed by staining mitochondria via MitoTracker® Deep Red FM (Cell Signalling) (Aung L H H, Li R B, Prabhakar B S, Maker A V, Li P F. Mitochondrial protein 18 (MTP18) plays a pro-apoptotic role in chemotherapy-induced gastric cancer cell apoptosis. Oncotarget. 2017; 8:56582-97). […] Mitochondria were imaged using Nikon Eclipse Ti microscope with 60× oils Objective (CFI Plan Apo Lambda 60× Oil) and images were analyzed with NIS Elements. To quantitatively analyse cells with mitochondria fission, those cells with disintegrated mitochondria were considered as fission. The total cell numbers were counted via Hochest 33342. […] More than 150 cells in 10-15 random fields were counted.

The target of a further series is T1, SSBP1 (Mus musculus, UniProt Q9CYR0).
T1 construct: biotinylated DNA oligo probes against endogenous or ectopically expressed circ-Insr and linear-Insr; endogenous in cells; host or cells: 3T3 cells
T1 sequence (Q9CYR0 17-152): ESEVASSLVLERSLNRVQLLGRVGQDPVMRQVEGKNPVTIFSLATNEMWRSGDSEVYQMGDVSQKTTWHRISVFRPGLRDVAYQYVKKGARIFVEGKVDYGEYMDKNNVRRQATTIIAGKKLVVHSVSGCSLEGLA
Kind of series: RNA pull-down with circINSR probe, Western blotting. Particulars: Western blot with SSBP1-specific antibodies. Format: binding. As for the experimental part:
Finally, RNA pull-down experiments were performed to identify potential protein interaction partners of circINSR. To do so, a biotin-labelled probe was designed which spans the backsplice junction (FIG. 8A). […] Mass spectrometry analysis of the pull-down lysates yielded a list of potential protein interactors. After applying several filtering parameters (relative MS peptide count >15, relative enrichment over hostgene and control probe log 2FC>2) and cat rapid analysis to calculate the interaction propensity with circINSR, Single-stranded DNA-binding protein 1, SSBP1, was identified as the most probable binding partner of circINSR (FIG. 8B). […] Moreover, co-localisation of circINSR and SSBP1 in Immuno-RNA-FISH staining, further confirmed the interaction between those two.
Cell pellets were lysed in 1× Cell lysis buffer (Cell Signaling) and isolated protein was measured by Bradford (Biorad) for quantification. […] Band intensity was calculated by Image J software.
10^6 cells were washed in ice-cold phosphate-buffered saline, lysed in 500 μl co-IP buffer, and incubated with 3 μg biotinylated DNA oligo probes against endogenous or ectopically expressed circ-Insr and linear-Insr, at room temperature for 2 h. […] The bound proteins in the pull-down materials were analyzed by western blotting and the RNA sample were analysed via qRT-PCR.
(In general: Immunoblotting shows a protein as a band on a membrane.)

B1: circINSR: circRNA formed through backsplicing of the second exon of the insulin receptor gene transcript; overexpressed from plasmid or AAV (nucleic acid, listed as Homo sapiens)
chain: UGUGUCCCGGCAUGGAUAUCCGGAACAACCUCACUAGGUUGCAUGAGCUGGAGAAUUGCUCUGUCAUCGAAGGACACUUGCAGAUACUCUUGAUGUUCAAAACGAGGCCCGAAGAUUUCCGAGACCUCAGUUUCCCCAAACUCAUCAUGAUCACUGAUUACUUGCUGCUCUUCCGGGUCUAUGGGCUCGAGAGCCUGAAGGACCUGUUCCCCAACCUCACGGUCAUCCGGGGAUCACGACUGUUCUUUAACUACGCGCUGGUCAUCUUCGAGAUGGUUCACCUCAAGGAACUCGGCCUCUACAACCUGAUGAACAUCACCCGGGGUUCUGUCCGCAUCGAGAAGAACAAUGAGCUCUGUUACUUGGCCACUAUCGACUGGUCCCGUAUCCUGGAUUCCGUGGAGGAUAAUUACAUCGUGUUGAACAAAGAUGACAACGAGGAGUGUGGAGACAUCUGUCCGGGUACCGCGAAGGGCAAGACCAACUGCCCCGCCACCGUCAUCAACGGGCAGUUUGUCGAACGAUGUUGGACUCAUAGUCACUGCCAGAAAG
modifications: circular RNA; RNA sequence
notes: circRNA formed through backsplicing of the second exon of the insulin receptor gene transcript; overexpressed from plasmid or AAV
For the molecule B1, the “cell viability (WST-1)” value in the series on HL-1 cells [1] was “enhanced cell viability”; with HL-1 cells [1] (listed as circ-Insr) it was “enhance the cell survival”. In addition, in the series on cardiomyocytes, the cardiomyocyte size entry is reported as “indistinguishable from control mice”. The “percentage of cells undergoing mitochondrial fission” value in the series on HL-1 cells [2] is on record as “significantly reduce”. Also, the “interaction of circINSR with SSBP1” value with SSBP1 was “confirmed a physical interaction”.
